These results are taken from publication PMC12172430.

For this experiment, the target named is DS-Cav1 (soluble trimeric RSV prefusion F ectodomain) (respiratory syncytial virus | bacteriophage T4) (UniProt P03420). Kind of experiment: native gel or EMSA; native-PAGE and native western blot of the purified soluble RSV F protein.

“DS-Cav1 (soluble trimeric RSV prefusion F ectodomain) (from UniProt P03420 26-513)”: the stoichiometry N (usually the number of molecules, sites or subunits per partner or assembly) is 3.
